How the values were obtained:
[1] = test system: SARS CoV-2 "South African" B.1.351 variant Spike protein
[2] = test system: pseudotyped virus carrying B.1.351 or "SA" variant (beta lineage) spike; assay type: cell-based, SARS-CoV-2; details: read-out: Virus Neutralization Pseudovirus (nM) Beta

Sequence	stability conferred to the knob sequence by N- and C-terminal residues, in words [1]	EC50 [2] [nM]
DYTCPDGYEHTCGCIGGCGCKRSACIGALCCQASLGGWLSDMP [G3-C]	improved stability	
GMTCPDGYEHTCGCIGGCGCKRSACIGALCCQASLGGWLSDRS [G3-Z]	improved stability	
HWTCPDGYEHTCGCIGGCGCKRSACIGALCCQASLGGWLSDSF [2G3 knob HWSF]	improved stability	7.82 ± 1.59
ISTCPDGYEHTCGCIGGCGCKRSACIGALCCQASLGGWLSDTV [2G3 knob ISTV]	improved stability	20.9 ± 7.95
LVTCPDGYEHTCGCIGGCGCKRSACIGALCCQASLGGWLSDIP [G3-G]	improved stability	
SVTCPDGYEHTCGCIGGCGCKRSACIGALCCQASLGGWLSDYI [G3-E]	improved stability	
TCPDGYEHTCGCIGGCGCKRSACIGALCCQASLGGWLSD [2G3 Knob]		15.7 ± 2.61
